B1: Strep-His-TEV-HaloTag-3C-Xenopus γTuNA (Xenopus Cdk5rap2 aa 56–101), wildtype [Xenopus laevis] / itself (parent)
chain: MKDFEKQIAELKKENFNLKLRIYFLEEQVQQKCDNSSEDLYRMNIE
B2: Strep-His-TEV-HaloTag-3C-human γTuNA (human CDK5RAP2 aa 53–98), wildtype [human] / itself (parent)
chain: SPTRARNMKDFENQITELKKENFNLKLRIYFLEERMQQEFHGPTEH

One test covers variants of B1. As to the kind of experiment: size-exclusion chromatography (self-association / dimerization). Conditions: with itself; 50 µM (monomer); Superdex 200 increase 10/300 GL; read off a plot. (In general: SEC sorts molecules by how far they enter the pores of the column.)
Consider chain 1 F16A, for which the screen value is 13.3 mL.
Still for that read-out and setting: the value for chain 1 L11A was 14 mL; that for chain 1 F4A was 13.4 mL; that for chain 1 I8A was 13.5 mL.
The same measure, in the same setting: the value for chain 1 L18A was 14.2 mL.
For chain 1 I8D L11D, the screen value was determined as 15 mL.

Staying with this test, now noted: with itself; 50 µM (monomer); Superdex 200 increase 10/300 GL; main peak, a minor shoulder near 13.2 mL is also drawn; read off a plot.
Take chain 1 L18A: the screen value was 14.2 mL.

Variants of B2 are the subject of the next test. Described as above. Conditions: with itself; 50 µM (monomer); Superdex 200 increase 10/300 GL; read off a plot.
Turning to chain 1 I15D L18D, the screen value came to 15.1 mL.
The same measure, in the same setting: the value for chain 1 I15A L18A was 15.1 mL.

Still in this test, the particulars now being: with itself; 50 µM (monomer); Superdex 200 increase 10/300 GL; main peak, a minor peak near 13.1 mL is also drawn; read off a plot.
On to chain 1 F11A I15A L18A L25A, for which the screen value was 15 mL.

The same test, now with this note: with itself; 50 µM (monomer); Superdex 200 increase 10/300 GL; main peak, a minor peak near 12.9 mL is also drawn; read off a plot.
As for chain 1 F11D I15D L18D, the screen value is 15.1 mL.

The values above are taken from publication PMC9859039, “The conserved centrosomin motif, γTuNA, forms a dimer that directly activates microtubule nucleation by the γ-tubulin ring complex (γTuRC)” (eLife, 2022).
